The source of these data is US20230265134A1.

The target of this test is Ustekinumab lambda fusion light chain (human). As to the kind of experiment: LCMS of Fabs cleaved from IgG; 2 HC + 2 LC co-expressed in HEK293.

As to “Panitumumab heavy chain, CH1 K147F S183K (from UniProt P01857 1-101)”, the % HC1-LC2 product amounted to 0%.
